# Reference: patent US20230391862A1, “METHOD OF S[…] RESPONSE TO VECTOR-DELIVERED T[…]” (Scout Bio, Inc., priority 2020, published 2023)
# How the values were obtained:
# [1] = Serum level of feNGF mAb in cats by NGF-binding ELISA; type: in vivo, cat
# Description: The concentration of FeNGF mAb in cat serum was determined using an NGF-binding ELISA. ELISA plates were coated with 0.1 μg/ml muNGF and blocked with PBS/0.05% Tween 20/1% BSA. muNGF coated wells were incubated for 1 h at room temperature with serum diluted in PBS/0.05% Tween 20/1% BSA in the amount of 100 μl/well. FeNGF antibody concentrations ranging from 1.56 ng/ml to 100 ng/ml were used to establish a binding curve. Well plates were washed following incubation and were then incubated with a 1/10,000 dilution of goat anti-feline IgG-HRP in PBS/0.05% Tween 20/1% BSA. Plates were washed with PBS/0.05% Tween 20 and developed by the addition of 3,3′,5,5′-tetramethylbenzidine (TMB) substrate. Development was stopped by the addition of 2M H2SO4 and the absorbance read at 450 nm and background was subtracted from the resulting reading.
# The concentration of feline anti-NGF mAb in cat serum was determined using an NGF-binding ELISA. […] Development was stopped by the addition of 2M H2SO4 and absorbance read at 450 nm and background was subtracted.
# The concentration of feline anti-NGF mAbs in cat serum was determined using an NGF-binding ELISA. […] Development was stopped by the addition of 2M H2SO4 and absorbance read at 450 nm and background was subtracted.
# [2] = tested on: anti-transgene product antibody (ATPA) response, anti-(anti-feNGF mAb) antibodies; test: Bridging immunoassay for anti-transgene product antibodies (ATPA) in cat serum after IM AAV; conditions: cats; for ATPA up to 98 days post AAV administration: mAb 2 mg/kg SC 14 days before AAV IM 2.5×10^11 gc/kg
# Description: A bridging Immunoassay with acid dissociation was used to evaluate the presence of anti-(anti-feNGF mAb) antibodies in the cat serum. Samples were pre-treated with acid to disrupt any existing ATPA-feNGF mAb complexes before assessment in the bridging assay. Samples were diluted to 2.5% in 300 mM acetic acid to enable ATPA-feNGF mAb complex dissociation before analysis. Acidified samples were incubated for 40 min with shaking at ambient temperature. 25 μl of the acidified samples were transferred to wells of a 96 well plate containing 90 μL of master-mix reagent (0.125 μg/mL of biotinylated feNGF mAb and 0.125 μg/mL of ruthenylated feNGF mAb with 1% Meso Scale Discovery (MSD) Blocker A in PBS-T) and 11 μL 1.2M Tris solution (pH 9.5). Acidified samples plus master-mix reagents were incubated at ambient temperature in the dark for 60 min with shaking. Simultaneously, Streptavidin-coated MSD plates were blocked for 60 min at ambient temperature with 200 μL/well of PBS-T buffer containing 3% (MSD) Blocker A. The Streptavidin-coated MSD plates were then washed and 25 μl of the acidified sample plus master-mix reagent were transferred to the plates which were then incubated at ambient temperature in the dark for 60-90 min with shaking. The MSD plates were washed and then 150 μL of 2×MSD Read T-Buffer was added per well before the plates were read on an MSD MESO QuickPlex SQ 120 instrument. The resulting response was recorded as Relative Light Units (RLU).
# A bridging immunoassay with acid dissociation was used to evaluate the presence of anti-(anti-feNGF mAb) antibodies in the cat serum at timepoints when the circulating levels of drug were at the lowest (pre-dose). Samples were pre-treated with acid to disrupt any existing ADA-feNGF mAb complexes before assessment in the bridging assay. Briefly, samples were diluted to 2.5% in 300 mM acetic acid to enable ADA-drug complex dissociation before analysis. Acidified samples were incubated for 40 min with shaking at ambient temperature. 25 μl of the acidified samples were transferred to wells of a 96 well plate containing 90 μL of master-mix reagent (0.125 μg/mL of biotinylated feNGF mAb and 0.125 μg/mL of ruthenylated feNGF mAb with 1% Meso Scale Discovery (MSD) Blocker A in PBS-T) and 11 μL 1.2M Tris solution (pH 9.5). Acidified samples plus master-mix reagents were incubated at ambient temperature in the dark for 60 min with shaking. Simultaneously, Streptavidin-coated MSD plates were blocked for 60 min at ambient temperature with 200 μL/well of PBS-T buffer containing 3% (MSD) Blocker A.
# The Streptavidin-coated MSD plates were then washed and 25 ul of the acidified sample plus master-mix reagent were transferred to the plates which were then incubated at ambient temperature in the dark for 60-90 min with shaking. The MSD plates were washed, 150 μL of 2×MSD Read T-Buffer was added per well before the plates were read on an MSD MESO QuickPlex SQ 120 instrument. The resulting response was recorded as Relative Light Units (RLU).
# A bridging immunoassay with acid dissociation was used to evaluate the presence of anti-(anti-feNGF mAb) antibodies in the cat serum at timepoints when the circulating levels of drug were at the lowest (pre-dose). Samples were pre-treated with acid to disrupt any existing ADA-feNGF mAb complexes before assessment in the bridging assay. Briefly, samples were diluted to 2.5% in 300 mM acetic acid to enable ADA-drug complex dissociation before analysis. Acidified samples were incubated for 40 min with shaking at ambient temperature.
Molecule,"expression of feNGF mAb in the serum ([1]; mAb 2 mg/kg SC day −14, then AAV.CB7.feNGF IM 2.5×10^11 gc/kg day 0 (FIG. 4B))",ATPA up to 98 days post AAV administration ([2]; Example 7),"ATPA response after pre-treatment ([2]; pre-treatment, then AAV.CB7.feNGF IM 2.5×10^11 gc/kg at day 0 (FIG. 4E-4H))","detectable serum antibody ([1]; Example 8, high dose (1×10^13 gc/cat) cohort, the animal with ATPA response)","ATPA signal following the recombinant mAb administration ([2]; Example 7, V5_1 pre-treatment group, did not persist, did not affect transgene expression (FIG. 10F))","treatment induced ATPA response ([2]; Example 8, mAb 2 mg/kg SC day −14, then high dose of AAV (1×10^13 gc/cat))","treatment-emergent immunogenicity up to 56 days post AAV administration ([2]; Example 8, mAb 2 mg/kg SC day −14, then medium dose of AAV (1×10^12 gc/cat))"
"feNGF mAb: recombinant purified felinized anti-NGF monoclonal antibody, clone JCV4, SEQ ID NOs: 1 and 2 (antibody, V domains shown, felinized anti-NGF antibody VH Sequence; felinized anti-NGF antibody VL Sequence) VH: QVQLMESGADLVQPSESLRLTCVASGLSLTNNNVNWVRQAPGKGLEWMGGVWAGGATDYNSALKSRLTITRDTSKNTVFLQMHSLQSEDTATYYCARDGGYSSSTLYAMDAWGQGTTVTVSA VL: DIEMTQSPLSLSATPGETVSISCRASEDIYNALAWYLQKPGRSPRLLIYNTDTLHTGVPDRFSGSGSGTDFTLKISRVQTEDVGVYFCQHYFHYPRTFGQGTKLELK","strong, sustained expression of feNGF mAb was observed",no evidence of ATPA was observed,no ATPA response was observed,,,,
"fNGFV5_1 mAb: purified felinized anti-NGF monoclonal antibody, clone V5_1, SEQ ID NOs: 2 and 5 (antibody, V domains shown, felinized anti-NGF antibody VL Sequence; felinized anti-NGF antibody (V5_1) VH Sequence) VL: DIEMTQSPLSLSATPGETVSISCRASEDIYNALAWYLQKPGRSPRLLIYNTDTLHTGVPDRFSGSGSGTDFTLKISRVQTEDVGVYFCQHYFHYPRTFGQGTKLELK VH: QVQLVESGGDLVQPGGSLRLTCVASGFSLTNNNVNWVRQAPGKGLEWMGGVWAGGATDYNSAVKSRLTITRDTSKNTVFLQMHSLQSEDTATYYCARDGGYSSSTLYAMDAWGQGTTVTVSA",,no evidence of ATPA was observed,,sudden loss in detectable serum antibody,"low, transient ATPA signal was observed in one animal",A single treatment induced ATPA response was observed,no evidence of treatment-emergent immunogenicity was observed
